This note sets out measurements from paper PMC10051649, “Suramin Disturbs the Association of the N-Terminal Domain of SARS-CoV-2 Nucleocapsid Protein with RNA”.

The target in the series is SARS-CoV-2 nucleocapsid N-terminal domain (N-NTD) (SARS-CoV-2, UniProt P0DTC9 44-180). In words: BLI. The following applies: protein: recombinant; tags: 6xHis-SUMO removed by SUMO protease; biotinylated for BLI; 15N-labeled for NMR; single strand.

In the case of AUAUGGAAGAGCCCUA (ssRNA) [ssRNA-16], the Kd (in general, the constant that tells how readily two partners part at equilibrium) came to 8.37 µM.
